The values below come from publication PMC11965310.

The target in experiment [1] is VHH H3-2. The experiment can be described thus: SEC; Superdex 75 Increase 10/300 GL, PBS, 16 °C; 20 µM VHH without or with 40 µM tau-Cter peptide. On the technique in general: SEC sorts molecules by how far they enter the pores of the column.
The target in experiment [2] is VHH H3-2. The experiment can be described thus: crystal structure; 280 μM H3-2 with 1 mM tau-Cter peptide; 23% PEG-MME 2000, 0.1 M potassium acetate; 1.8 Å.

B1: VHH H3-2 (VHH)
VHH: EVQLQASGGGFVQPGGSLRLSCAASGYTSGDEIMGWFRQAPGKEREFVSAISWQSGTSTYYADSVKGRFTISRDNSKNTVYLQMNSLRAEDTATYYCAPMTLAETYYEWLISGYWGQGTQVTVSS
As a reminder, the stoichiometry N is a count of units in the complex or per binding partner. As to B1, the stoichiometry N with VHH H3-2 [1] and with VHH H3-2 [2] was 2 throughout.
